Assay results as given in US20040072754A1, “Amyloid precursor protein and APP-deprived peptides inhibit tumor growth and metastasis” (priority 2000, published 2004).
No end group written: not given here.

Legend:
[1] = tested on: hippocampal cell cultures; conditions: Iversen et al., 1995; cited from earlier work
[2] = tested on: D122 tumor cells (Lewis lung carcinoma); test: Lewis lung carcinoma (D122) i.v. lung metastasis model with i.p. injected Aβ peptides; format: in vivo, C57/BL mice; conditions: 20 μg/mouse/injection (Aβ96-110: 10 μg), 7 times during two weeks before and 7 times after D122 i.v. injection; examined after 21 days
Experimental: The intravenous (i.v.) model. […] D122 or B16 tumor cells were injected i.v. into Tg-APP, Tg-APP/SOD or parental mice and metastasis was evaluated after 30-37 days. In certain long-term experiments the evaluation was performed over a period of 120-140 days post injection of the tumor cells.
Aβ peptides in phosphate buffered saline (PBS) were injected i.p. into C57/BL mice 4-7 times (7-10 μg each time or 10-20 μg each time in other experiments) during two weeks preceding D122 or B16 tumor cells injection and seven times every second day following D122 or B16 tumor cells injection. Control mice were i.p. injected with PBS. Mice were sacrificed 20-21 days following injection of D122 or B16 tumor cells by injecting 20 mg/mouse Xylazine (i.p.) and lungs were weighed. Lungs were fixed, stained in Bouin's solution and metastases counted. For histology, lungs were fixed in buffered formalin and histological sections were prepared and stained with Hematoxylin-Eosin. Each experimental group included 7-12 animals, and experiments were repeated twice.
D122 tumor cells were injected i.v. to the tail of C57/BL mice. […] All together 77 μg of AP 1-42 were injected into each mouse. After 21 days tumor weight and number of metastases in the lungs were examined.
D122 tumor cells were injected intravenously to the tail of C57/BL mice. […]

## Aβ25-35: Aβ sequence fragment tested for neurotoxicity in the literature (GSNKGAIIGLM; Amyloid-beta protein 42; UniProt P05067 696-706, looked up, fragment)
[1]
  toxicity to neuronal cells: induced toxicity

## Aβ1-38: Aβ sequence fragment tested for neurotoxicity in the literature
[1]
  toxicity to neuronal cells: induced toxicity

## NWCKRGRKQCKTHPH (cysteine pairing not given here) [Aβ96-10]
[2]
  reduction of the number of metastases in the lungs: 9%

## Aβ1-40: Aβ sequence fragment tested for neurotoxicity in the literature
[1]
  toxicity to neuronal cells: induced toxicity

## Aβ1-28: Aβ sequence fragment tested for neurotoxicity in the literature
[1]
  toxicity to neuronal cells: non-toxic
